Measured values from article PMC6534540.

Target: N-term biotinylated candidalysin (Candida albicans)
Assay: SPR; Biacore T100; N-term biotinylated candidalysin captured (up to 1000 RU) on neutravidin coupled to a CM5 chip, free sites blocked with PEG-biotin; EGFR domains injected at 250, 500, 1000 and 2000 nM at 10 µL/min; HBS-EP buffer (10 mM HEPES pH 7.4, 150 mM NaCl, 3 mM EDTA, 0.005% Surfactant P20); 25 °C; neutravidin-only reference cell

Sequence of N-term biotinylated candidalysin (Candida albicans) (Q07730 62-92): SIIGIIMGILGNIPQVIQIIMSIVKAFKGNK

“EGFR transmembrane portion (domain or fragment)” was tested, and the SPR signal response was under 50 RU.
